In publication PMC6486591 one finds stoichiometry N data, which are given here for one substance.

The target in test [1] is YenA2 (Yersinia entomophaga) (UniProt B6A878). The experiment in a line: cryo-EM structure; YenTcA pore form inserted into POPC liposomes (1:2 w/w, 3-5 freeze/thaw cycles), single-particle cryo-EM, 11 Å resolution.
For test [2] the target is unchanged. The test can be described thus: cryo-EM structure; YenTcA soluble pre-pore form, single-particle cryo-EM, 4.4 Å average resolution, C5 symmetry; 0.1 mg/mL in 25 mM Tris, 150 mM NaCl, pH 7.5, with 10 mM NDSB-195.

YenA2, sequence (B6A878 whole entry): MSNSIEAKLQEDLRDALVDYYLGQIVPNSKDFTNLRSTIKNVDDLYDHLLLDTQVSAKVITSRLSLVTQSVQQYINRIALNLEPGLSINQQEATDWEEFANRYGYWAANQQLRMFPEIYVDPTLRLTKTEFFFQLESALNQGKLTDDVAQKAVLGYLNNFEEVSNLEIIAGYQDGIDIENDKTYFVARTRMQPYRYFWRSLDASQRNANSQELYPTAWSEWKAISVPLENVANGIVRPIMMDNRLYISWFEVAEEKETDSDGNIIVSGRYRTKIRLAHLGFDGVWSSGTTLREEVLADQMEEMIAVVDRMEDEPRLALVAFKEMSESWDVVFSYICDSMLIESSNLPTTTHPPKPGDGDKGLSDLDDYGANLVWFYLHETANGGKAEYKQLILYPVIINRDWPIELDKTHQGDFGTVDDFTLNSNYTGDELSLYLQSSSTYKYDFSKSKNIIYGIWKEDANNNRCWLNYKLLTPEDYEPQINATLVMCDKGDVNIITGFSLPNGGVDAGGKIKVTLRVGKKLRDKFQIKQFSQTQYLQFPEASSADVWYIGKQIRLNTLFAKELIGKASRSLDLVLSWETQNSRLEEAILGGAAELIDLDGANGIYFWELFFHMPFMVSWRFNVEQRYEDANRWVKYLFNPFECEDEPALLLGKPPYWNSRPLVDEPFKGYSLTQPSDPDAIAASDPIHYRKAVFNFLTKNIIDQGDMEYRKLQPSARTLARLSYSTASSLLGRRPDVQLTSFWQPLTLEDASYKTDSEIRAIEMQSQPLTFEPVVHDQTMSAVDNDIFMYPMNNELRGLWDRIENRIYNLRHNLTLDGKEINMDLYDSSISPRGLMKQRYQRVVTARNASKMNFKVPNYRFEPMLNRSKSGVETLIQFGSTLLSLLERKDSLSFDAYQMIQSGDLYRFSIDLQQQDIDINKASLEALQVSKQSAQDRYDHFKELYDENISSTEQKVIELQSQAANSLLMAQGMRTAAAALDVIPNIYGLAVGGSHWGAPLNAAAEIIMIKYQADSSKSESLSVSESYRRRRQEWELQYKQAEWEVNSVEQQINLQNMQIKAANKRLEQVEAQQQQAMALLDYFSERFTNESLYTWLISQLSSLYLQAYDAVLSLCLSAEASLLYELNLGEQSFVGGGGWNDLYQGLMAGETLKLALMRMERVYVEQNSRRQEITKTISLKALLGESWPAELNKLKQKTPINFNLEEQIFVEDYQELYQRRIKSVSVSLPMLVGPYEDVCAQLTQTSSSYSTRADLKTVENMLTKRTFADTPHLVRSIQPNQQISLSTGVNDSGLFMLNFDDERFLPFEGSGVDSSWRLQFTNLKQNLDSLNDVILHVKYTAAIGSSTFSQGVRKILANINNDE

As for “YenA2 (from UniProt B6A878 1-1364) (natural protein)”, the stoichiometry N in test [1] and in test [2] was 5 throughout.

What is called stoichiometry N is the number of molecules, sites or subunits per partner or assembly.
